{
  "source": "paper PMC8068247",
  "about": "“Innovative and Highly Sensitive Detection of Clostridium perfringens Enterotoxin Based on Receptor Interaction and Monoclonal Antibodies” (Toxins, 2021)",
  "molecules": {"B1": {"name": "GST human claudin-4 fusion protein (GST-ShCLDN4H8) (receptor)", "chain": "MASMGLQVMGIALAVLGWLAVMLCCALPMWRVTAFIGSNIVTSQTIWEGLWMNCVVQSTGQMQCKVYDSLLALPQDLQAARALVIISIIVAALGVLLSVVGGKCTNCLEDESAKAKTMIVAGVVFLLAGLMVIVPVSWTAHNIIQDFYNPLVASGQKREMGASLYVGWAASGLLLLGGGLLCCNCPPRTDKPYSAKYSAARSAAASNYV"}},
  "key": {"[1]": {"target": "Clostridium perfringens enterotoxin (CPE) (Clostridium perfringens) (UniProt P01558)", "details": "cited from earlier work"}, "[2]": {"target": "Clostridium perfringens enterotoxin (CPE) (Clostridium perfringens) (UniProt P01558)", "details": "cited from earlier work", "remark": "listed apart in the source"}, "[3]": {"target": "T1, recombinant Clostridium perfringens enterotoxin (CPE) (aa 26–319, wild type) (Clostridium perfringens, UniProt P01558 26-319)", "T1 construct": "also called CPE 26–319; holo-CPE", "T1 sequence": "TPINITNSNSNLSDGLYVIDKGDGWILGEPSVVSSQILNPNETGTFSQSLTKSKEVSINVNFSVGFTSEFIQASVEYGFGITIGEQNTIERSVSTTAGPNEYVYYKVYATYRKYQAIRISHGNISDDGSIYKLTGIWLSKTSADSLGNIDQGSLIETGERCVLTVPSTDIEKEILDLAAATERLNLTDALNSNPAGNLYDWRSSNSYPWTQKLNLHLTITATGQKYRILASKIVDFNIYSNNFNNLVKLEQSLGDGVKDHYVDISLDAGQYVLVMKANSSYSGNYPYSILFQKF", "test": "SPR; […], multi-cycle, 120 s association, 1200 s dissociation; HBS-EP+ pH 7.4, 25 °C; Biacore T200; 1:1 Langmuir fit", "details": "both partners purified"}},
  "note": "Where two headings read alike, the source gives them in different places.",
  "data": [
    {"molecule": "claudin-4 (from UniProt O35054)", "values": [
      {"measurement": "Kd", "setting": "[1]", "result": 9, "unit": "nM"}
    ]},
    {"molecule": "claudin-4 (from UniProt O14493)", "values": [
      {"measurement": "Kd", "setting": "[2]", "result": 3.4, "unit": "nM"}
    ]},
    {"molecule": "B1", "values": [
      {"measurement": "Kd", "setting": "[3]", "result": 0.38, "unit": "nM"},
      {"measurement": "koff", "setting": "[3]", "result": 0.00021, "unit": "s⁻¹"},
      {"measurement": "kon", "setting": "[3]", "result": 560000, "unit": "M⁻¹ s⁻¹"}
    ]}
  ]
}
